Measured values: patent US20100322950

What was measured:
[1] = tested on: recombinant human osteopontin (OPN), full-length
[2] = target: tissue inhibitor of matrix metalloproteinase-1 (TIMP-1) (UniProt P01033)
Chain of tissue inhibitor of matrix metalloproteinase-1 (TIMP-1) (P01033 24-207): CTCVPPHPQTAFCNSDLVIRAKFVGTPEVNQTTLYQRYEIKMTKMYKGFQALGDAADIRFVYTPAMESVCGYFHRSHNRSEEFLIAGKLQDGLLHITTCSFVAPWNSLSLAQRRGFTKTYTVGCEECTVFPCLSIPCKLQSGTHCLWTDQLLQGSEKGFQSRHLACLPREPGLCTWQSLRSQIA

Chain of human matrix metalloproteinase-9 (MMP-9) (Calbiochem) (chain, as listed by the source): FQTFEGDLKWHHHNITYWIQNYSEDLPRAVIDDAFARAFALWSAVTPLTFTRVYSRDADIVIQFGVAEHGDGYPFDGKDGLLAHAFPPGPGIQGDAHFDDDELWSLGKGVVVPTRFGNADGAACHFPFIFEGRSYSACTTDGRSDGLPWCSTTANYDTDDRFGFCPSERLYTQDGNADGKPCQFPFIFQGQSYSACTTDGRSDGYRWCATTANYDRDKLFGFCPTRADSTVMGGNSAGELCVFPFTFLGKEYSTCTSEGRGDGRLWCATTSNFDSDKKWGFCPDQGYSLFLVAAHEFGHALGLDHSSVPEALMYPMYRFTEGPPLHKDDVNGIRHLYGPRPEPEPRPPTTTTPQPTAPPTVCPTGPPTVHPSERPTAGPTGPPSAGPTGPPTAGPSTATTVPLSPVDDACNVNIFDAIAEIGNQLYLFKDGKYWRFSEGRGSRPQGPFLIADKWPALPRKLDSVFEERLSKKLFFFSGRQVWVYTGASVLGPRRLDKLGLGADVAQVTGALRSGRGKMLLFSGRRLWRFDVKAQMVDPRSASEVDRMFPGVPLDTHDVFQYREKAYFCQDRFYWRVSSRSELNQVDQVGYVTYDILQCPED
Chain of recombinant human osteopontin (OPN), full-length (chain, as listed by the source): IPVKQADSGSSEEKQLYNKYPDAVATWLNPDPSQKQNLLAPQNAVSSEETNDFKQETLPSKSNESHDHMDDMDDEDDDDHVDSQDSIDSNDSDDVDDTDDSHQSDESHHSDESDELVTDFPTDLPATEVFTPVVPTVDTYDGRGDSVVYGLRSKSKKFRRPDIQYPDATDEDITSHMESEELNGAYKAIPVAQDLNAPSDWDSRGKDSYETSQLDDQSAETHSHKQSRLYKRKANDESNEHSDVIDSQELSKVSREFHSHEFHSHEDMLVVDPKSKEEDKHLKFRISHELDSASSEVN

Substance: human matrix metalloproteinase-9 (MMP-9) (Calbiochem)
- in vitro proteolytic cleavage of OPN (SDS-PAGE, N-terminal microsequencing, western blot) [1]: Recombinant MMP-9 cleaved OPN at two predominant sites in vitro, residues 166 and 210, resulting in 4 identified fragments
- MMP-9 cleavage of OPN (formation of the OPN-5 kD fragment), TIMP-1 added to the reaction [2]: could not be detected in cleavage reactions partially inhibited by the concomitant addition of EDTA, a naturally-occurring inhibitor of MMP-9 (tissue inhibitor of matrix metalloproteinase-1, or TIMP-1), or the hydroxamate MMP-9 inhibitor I
